Tested on: Escherichia coli TOP10
Test: shrunken log2 fold change of peptide-encoding DNA abundance (4.5 h post-induction vs induction); higher = less antimicrobial activity (less host growth inhibition)
Details: time post-induction: 4.5 h; library: site-saturation at positions 5, 18, 19, 20
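Also: peptides expressed intracellularly from a pBAD plasmid library in pooled LB shake-flask culture, induced with 0.3% L-arabinose, DNA abundance read by NGS, three biological replicates, DESeq2 with apeglm shrinkage.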

For RRIRRRPPRLPRPRPRPRETPRP, the “shrunken log2 fold change” value was 1.13.

For RRIRRRPPRLPRPRPRPRFRPRP, the “shrunken log2 fold change” value was 0.455.

With RRIRRRPPRLPRPRPRPRKDPRP the “shrunken log2 fold change” value was 0.302.

With RRIRRRPPRLPRPRPRPRKRPRP the “shrunken log2 fold change” value was 0.859.

RRIRRRPPRLPRPRPRPRKSPRP was tested, and the “shrunken log2 fold change” value was 0.339.

For RRIRRRPPRLPRPRPRPRLAPRP, the “shrunken log2 fold change” value was 0.62.

For RRIRRRPPRLPRPRPRPRLIPRP, the “shrunken log2 fold change” value was 0.874.

In the case of RRIRRRPPRLPRPRPRPRLNPRP, the “shrunken log2 fold change” value is reported as 0.522.

For RRIRRRPPRLPRPRPRPRMKPRP, the “shrunken log2 fold change” value was 0.309.

In the case of RRIRRRPPRLPRPRPRPRMMPRP, the “shrunken log2 fold change” value is reported as 0.351.

RRIRRRPPRLPRPRPRPRNDPRP was tested, and the “shrunken log2 fold change” value was 0.195.

With RRIRRRPPRLPRPRPRPRNPPRP the “shrunken log2 fold change” value was 0.345.

In the case of RRIRRRPPRLPRPRPRPRPEPRP, the “shrunken log2 fold change” value is reported as 0.343.

For RRIRRRPPRLPRPRPRPRRDPRP, the “shrunken log2 fold change” value was 0.19.

With RRIRRRPPRLPRPRPRPRSCPRP the “shrunken log2 fold change” value was 0.182.

RRIRRRPPRLPRPRPRPRTNPRP was tested, and the “shrunken log2 fold change” value was 0.482.

With RRIRRRPPRLPRPRPRPRTPPRP the “shrunken log2 fold change” value was 0.616.

With RRIRRRPPRLPRPRPRPRTYPRP the “shrunken log2 fold change” value was -0.213.

For RRIRRRPPRLPRPRPRPRWVPRP, the “shrunken log2 fold change” value was 0.407.

For RRIRRRPPRLPRPRPRPRYCPRP, the “shrunken log2 fold change” value was 0.216.

For RRIRRRPPRLPRPRPRPRYVPRP, the “shrunken log2 fold change” value was 0.147.

RRIRRRPPRLPRPRPRPSADPRP was tested, and the “shrunken log2 fold change” value was 0.247.

For RRIRRRPPRLPRPRPRPSATPRP, the “shrunken log2 fold change” value was 0.756.

For RRIRRRPPRLPRPRPRPSEFPRP, the “shrunken log2 fold change” value was 0.00596.

With RRIRRRPPRLPRPRPRPSFAPRP the “shrunken log2 fold change” value was 0.492.

RRIRRRPPRLPRPRPRPSFCPRP was tested, and the “shrunken log2 fold change” value was -0.00369.

In the case of RRIRRRPPRLPRPRPRPSFFPRP, the “shrunken log2 fold change” value is reported as 0.0112.

For RRIRRRPPRLPRPRPRPSFPPRP, the “shrunken log2 fold change” value was 0.0188.

For RRIRRRPPRLPRPRPRPSFYPRP, the “shrunken log2 fold change” value was -0.36.

With RRIRRRPPRLPRPRPRPSGHPRP the “shrunken log2 fold change” value was 0.161.

With RRIRRRPPRLPRPRPRPSHGPRP the “shrunken log2 fold change” value was 0.145.

RRIRRRPPRLPRPRPRPSHQPRP was tested, and the “shrunken log2 fold change” value was 0.0351.

In the case of RRIRRRPPRLPRPRPRPSIVPRP, the “shrunken log2 fold change” value is reported as 0.26.

In the case of RRIRRRPPRLPRPRPRPSIYPRP, the “shrunken log2 fold change” value is reported as -0.449.

In the case of RRIRRRPPRLPRPRPRPSKDPRP, the “shrunken log2 fold change” value is reported as 0.0136.

For RRIRRRPPRLPRPRPRPSKSPRP, the “shrunken log2 fold change” value was 0.292.

RRIRRRPPRLPRPRPRPSMLPRP was tested, and the “shrunken log2 fold change” value was -0.172.

For RRIRRRPPRLPRPRPRPSNVPRP, the “shrunken log2 fold change” value was 0.27.

In the case of RRIRRRPPRLPRPRPRPSQMPRP, the “shrunken log2 fold change” value is reported as 0.0447.

RRIRRRPPRLPRPRPRPSQNPRP was tested, and the “shrunken log2 fold change” value was 0.0754.

For RRIRRRPPRLPRPRPRPSQSPRP, the “shrunken log2 fold change” value was 0.121.

With RRIRRRPPRLPRPRPRPSRFPRP the “shrunken log2 fold change” value was 0.536.

RRIRRRPPRLPRPRPRPSRQPRP was tested, and the “shrunken log2 fold change” value was 0.352.

With RRIRRRPPRLPRPRPRPSSFPRP the “shrunken log2 fold change” value was -0.0626.

In the case of RRIRRRPPRLPRPRPRPSSMPRP, the “shrunken log2 fold change” value is reported as -0.143.

In the case of RRIRRRPPRLPRPRPRPTAMPRP, the “shrunken log2 fold change” value is reported as 0.78.

In the case of RRIRRRPPRLPRPRPRPTANPRP, the “shrunken log2 fold change” value is reported as 0.589.

RRIRRRPPRLPRPRPRPTDCPRP was tested, and the “shrunken log2 fold change” value was 0.0967.

For RRIRRRPPRLPRPRPRPTDKPRP, the “shrunken log2 fold change” value was 0.0418.

For RRIRRRPPRLPRPRPRPTETPRP, the “shrunken log2 fold change” value was 0.137.

With RRIRRRPPRLPRPRPRPTFGPRP the “shrunken log2 fold change” value was 0.337.

RRIRRRPPRLPRPRPRPTFNPRP was tested, and the “shrunken log2 fold change” value was 0.077.

In the case of RRIRRRPPRLPRPRPRPTGEPRP, the “shrunken log2 fold change” value is reported as 0.337.

RRIRRRPPRLPRPRPRPTGLPRP was tested, and the “shrunken log2 fold change” value was 0.0398.

For RRIRRRPPRLPRPRPRPTGYPRP, the “shrunken log2 fold change” value was 0.246.

In the case of RRIRRRPPRLPRPRPRPTHGPRP, the “shrunken log2 fold change” value is reported as 1.37.

With RRIRRRPPRLPRPRPRPTHRPRP the “shrunken log2 fold change” value was 0.867.

RRIRRRPPRLPRPRPRPTICPRP was tested, and the “shrunken log2 fold change” value was 0.394.

With RRIRRRPPRLPRPRPRPTKMPRP the “shrunken log2 fold change” value was 0.248.

RRIRRRPPRLPRPRPRPTLMPRP was tested, and the “shrunken log2 fold change” value was 0.581.

With RRIRRRPPRLPRPRPRPTMEPRP the “shrunken log2 fold change” value was -0.0829.

RRIRRRPPRLPRPRPRPTNGPRP was tested, and the “shrunken log2 fold change” value was -0.168.

For RRIRRRPPRLPRPRPRPTNLPRP, the “shrunken log2 fold change” value was 0.068.

For RRIRRRPPRLPRPRPRPTPGPRP, the “shrunken log2 fold change” value was 1.11.

For RRIRRRPPRLPRPRPRPTQMPRP, the “shrunken log2 fold change” value was 0.694.

RRIRRRPPRLPRPRPRPTRHPRP was tested, and the “shrunken log2 fold change” value was 0.783.

In the case of RRIRRRPPRLPRPRPRPTSDPRP, the “shrunken log2 fold change” value is reported as 0.256.

With RRIRRRPPRLPRPRPRPTSMPRP the “shrunken log2 fold change” value was 0.263.

RRIRRRPPRLPRPRPRPTVFPRP was tested, and the “shrunken log2 fold change” value was 0.721.

For RRIRRRPPRLPRPRPRPTVNPRP, the “shrunken log2 fold change” value was 0.15.

With RRIRRRPPRLPRPRPRPTWHPRP the “shrunken log2 fold change” value was 0.429.

With RRIRRRPPRLPRPRPRPTWVPRP the “shrunken log2 fold change” value was 0.275.

For RRIRRRPPRLPRPRPRPVACPRP, the “shrunken log2 fold change” value was 0.41.

With RRIRRRPPRLPRPRPRPVANPRP the “shrunken log2 fold change” value was 0.207.

In the case of RRIRRRPPRLPRPRPRPVDAPRP, the “shrunken log2 fold change” value is reported as 0.804.

With RRIRRRPPRLPRPRPRPVELPRP the “shrunken log2 fold change” value was 0.0415.

For RRIRRRPPRLPRPRPRPVFLPRP, the “shrunken log2 fold change” value was 0.0173.

RRIRRRPPRLPRPRPRPVGDPRP was tested, and the “shrunken log2 fold change” value was -0.0486.

RRIRRRPPRLPRPRPRPVGWPRP was tested, and the “shrunken log2 fold change” value was 0.666.

With RRIRRRPPRLPRPRPRPVGYPRP the “shrunken log2 fold change” value was 0.02.

With RRIRRRPPRLPRPRPRPVHLPRP the “shrunken log2 fold change” value was -0.022.

For RRIRRRPPRLPRPRPRPVIAPRP, the “shrunken log2 fold change” value was 0.654.

With RRIRRRPPRLPRPRPRPVIDPRP the “shrunken log2 fold change” value was -0.165.

With RRIRRRPPRLPRPRPRPVIVPRP the “shrunken log2 fold change” value was -0.114.

For RRIRRRPPRLPRPRPRPVLVPRP, the “shrunken log2 fold change” value was 0.487.

For RRIRRRPPRLPRPRPRPVLWPRP, the “shrunken log2 fold change” value was 0.886.

In the case of RRIRRRPPRLPRPRPRPVNTPRP, the “shrunken log2 fold change” value is reported as -0.0567.

In the case of RRIRRRPPRLPRPRPRPVPAPRP, the “shrunken log2 fold change” value is reported as 1.06.

In the case of RRIRRRPPRLPRPRPRPVQFPRP, the “shrunken log2 fold change” value is reported as 0.0855.

With RRIRRRPPRLPRPRPRPVSDPRP the “shrunken log2 fold change” value was 0.444.

With RRIRRRPPRLPRPRPRPVSFPRP the “shrunken log2 fold change” value was 0.178.

With RRIRRRPPRLPRPRPRPVTAPRP the “shrunken log2 fold change” value was 0.452.

RRIRRRPPRLPRPRPRPVVNPRP was tested, and the “shrunken log2 fold change” value was 0.61.

With RRIRRRPPRLPRPRPRPVWKPRP the “shrunken log2 fold change” value was 0.147.

RRIRRRPPRLPRPRPRPWCKPRP was tested, and the “shrunken log2 fold change” value was -0.0285.

With RRIRRRPPRLPRPRPRPWDEPRP the “shrunken log2 fold change” value was 0.0108.

With RRIRRRPPRLPRPRPRPWDTPRP the “shrunken log2 fold change” value was -0.139.

RRIRRRPPRLPRPRPRPWFGPRP was tested, and the “shrunken log2 fold change” value was -0.161.

With RRIRRRPPRLPRPRPRPWGSPRP the “shrunken log2 fold change” value was -0.186.

For RRIRRRPPRLPRPRPRPWIGPRP, the “shrunken log2 fold change” value was 0.0943.

With RRIRRRPPRLPRPRPRPWIVPRP the “shrunken log2 fold change” value was 3.

RRIRRRPPRLPRPRPRPWIWPRP was tested, and the “shrunken log2 fold change” value was -0.282.

For RRIRRRPPRLPRPRPRPWMNPRP, the “shrunken log2 fold change” value was -0.0882.

RRIRRRPPRLPRPRPRPWNFPRP was tested, and the “shrunken log2 fold change” value was -0.0355.

For RRIRRRPPRLPRPRPRPWSIPRP, the “shrunken log2 fold change” value was 0.0651.

In the case of RRIRRRPPRLPRPRPRPWTAPRP, the “shrunken log2 fold change” value is reported as -0.106.

For RRIRRRPPRLPRPRPRPWTPPRP, the “shrunken log2 fold change” value was 0.568.

RRIRRRPPRLPRPRPRPWVQPRP was tested, and the “shrunken log2 fold change” value was 0.25.

RRIRRRPPRLPRPRPRPWVWPRP was tested, and the “shrunken log2 fold change” value was 0.00495.
